The assay has as its target human PD-1-ECD-His (human). The assay can be described thus: SPR (Biacore), 37 °C.

A word on the Kd: it is a measure of binding affinity in units of concentration. Usually koff stands for the first-order rate constant of dissociation. For orientation: kon means the second-order rate constant of association. Lower therefore signals slower complex formation.

human PD-1-ECD-His (human), sequence (chain, as listed by the source): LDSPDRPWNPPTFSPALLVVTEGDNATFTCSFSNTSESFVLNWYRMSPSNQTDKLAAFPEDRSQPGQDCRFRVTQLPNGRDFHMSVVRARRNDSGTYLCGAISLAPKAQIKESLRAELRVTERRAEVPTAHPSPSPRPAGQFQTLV

B1: peresolimab (antibody, V domains shown)
VH: QVQLVQSGAEVKKPGASVKVSCKVSGYSLSKYDMSWVRQAPGKGLEWMGIIYTSGYTDYAQKFQGRVTMTEDTSTDTAYMELSSLRSEDTAVYYCATGNPYYTNGFNSWGQGTLVTVSS
VL: DIQMTQSPSSLSASVGDRVTITCQASQSPNNLLAWYQQKPGKAPKLLIYGASDLPSGVPSRFSGSGSGTDFTLTISSLQPEDFATYYCQNNYYVGPVSYAFGGGTKVEIK
For the molecule B1, the equilibrium dissociation constant (Kd) came to 2.29 nM, the koff worked out at 0.000701 s⁻¹ and the association rate constant (kon) amounted to 307000 M⁻¹ s⁻¹.

Source of the values: patent US20260070983A1 (Eli Lilly, published 2026).
